Data taken from PMC2853136 (Nucleic Acids Research, 2010).

B1: GST-RNPC1a (natural protein, UniProt Q9H0Z9-1 1-239, looked up)
chain: MLLQPAPCAPSAGFPRPLAAPGAMHGSQKDTTFTKIFVGGLPYHTTDASLRKYFEGFGDIEEAVVITDRQTGKSRGYGFVTMADRAAAERACKDPNPIIDGRKANVNLAYLGAKPRSLQTGFAIGVQQLHPTLIQRTYGLTPHYIYPPAIVQPSVVIPAAPVPSLSSPYIEYTPASPAYAQYPPATYDQYPYAASPATAASFVGYSYPAAVPQALSAAAPAGTTFVQYQAPQLQPDRMQ
B2: His-tagged RNPC1a (recombinant) (natural protein, UniProt Q9H0Z9-1 1-239, looked up)
chain: B1 chain
B3: GST-HuR (183–326) (domain or fragment, UniProt Q15717 183-326, looked up)
chain: FAANPNQNKNVALLSQLYHSPARRFGGPVHHQAQRFRFSPMGVDHMSGLSGVNVPGNASSGWCIFIYNLGQDADEGILWQMFGPFGAVTNVKVIRDFNTNKCKGFGFVTMTNYEEAAMAIASLNGYRLGDKILQVSFKTNKSHK
B4: GST-HuR (134–326) (domain or fragment, UniProt Q15717 134-326, looked up)
chain: NSRVLVDQTTGLSRGVAFIRFDKRSEAEEAITSFNGHKPPGSSEPITVKFAANPNQNKNVALLSQLYHSPARRFGGPVHHQAQRFRFSPMGVDHMSGLSGVNVPGNASSGWCIFIYNLGQDADEGILWQMFGPFGAVTNVKVIRDFNTNKCKGFGFVTMTNYEEAAMAIASLNGYRLGDKILQVSFKTNKSHK
B5: GST-HuR (Δ95-244) (natural protein, UniProt Q15717 1-326, looked up)
chain: MSNGYEDHMAEDCRGDIGRTNLIVNYLPQNMTQDELRSLFSSIGEVESAKLIRDKVAGHSLGYGFVNYVTAKDAERAINTLNGLRLQSKTIKVSCIFIYNLGQDADEGILWQMFGPFGAVTNVKVIRDFNTNKCKGFGFVTMTNYEEAAMAIASLNGYRLGDKILQVSFKTNKSHK

Legend:
Assay in all cases: pull-down
[1] = target: His-tagged HuR (recombinant) (UniProt Q15717 1-326)
GST-HuR (1–326) = GST-HuR (1–326) (UniProt Q15717 1-326)
[2] = target: B2

| Binder | binding result [2] | other results |
| --- | --- | --- |
| B1 | – | binding result [1]: binds |
| B2 | – | binding result (GST-HuR (1–326)): binds |
| B3 | binds | – |
| B4 | binds | – |
| B5 | binds | – |
